Results on 34 variants are retold here after the Human Domainome abundance scans (Beltran et al. 2025).

± gives the uncertainty stated by the source.

The chains are these.
B1: Segment polarity protein dishevelled homolog DVL-3, residues 2 to 81; numbered along this chain, Q92997 (parent)
chain: GETKIIYHLDGQETPYLVKLPLPAERVTLADFKGVLQRPSYKFFFKSMDDDFGVVKEEISDDNAKLPCFNGRVVSWLVSA

Variants of B1 are the subject of this data set. The data set is described as follows: abundance fitness (aPCA) (normalised: wild type 0, dead -1); higher = more abundant; growth selection in yeast, the domain comes from the species named. The settings on record: Homo sapiens.
As to GETKIIYHLDGQETPYLVKLPLPAERVTLADFKGVLQRPSYKFFFKSWDDDFGVVKEEISDDNAKLPCFNGRVVSWLVSA [M48W], the abundance fitness is 0.017 ± 0.059.
Regarding GETKIIYHLDGQETPYLVKLPLPAERVTLADFKGVLQRPSYKFFFKSTDDDFGVVKEEISDDNAKLPCFNGRVVSWLVSA [M48T], the abundance fitness is 0.296 ± 0.057.
Consider GETKIIYHLDGQETPYLVKLPLPAERVTLADFKGVLQRPSYKFFFKSSDDDFGVVKEEISDDNAKLPCFNGRVVSWLVSA [M48S], for which the abundance fitness is 0.283 ± 0.047.
Take GETKIIYHLDGQETPYLVKLPLPAERVTLADFKGVLQRPSYKFFFKSYDDDFGVVKEEISDDNAKLPCFNGRVVSWLVSA [M48Y]: the abundance fitness was determined as 0.175 ± 0.081.
As for GETKIIYHLDGQETPYLVKLPLPAERVTLADFKGVLQRPSYKFFFKSVDDDFGVVKEEISDDNAKLPCFNGRVVSWLVSA [M48V], the abundance fitness came to 0.125 ± 0.048.
For the variant GETKIIYHLDGQETPYLVKLPLPAERVTLADFKGVLQRPSYKFFFKSMLDDFGVVKEEISDDNAKLPCFNGRVVSWLVSA [D49L], the abundance fitness was -0.564 ± 0.076.
In the case of GETKIIYHLDGQETPYLVKLPLPAERVTLADFKGVLQRPSYKFFFKSMADDFGVVKEEISDDNAKLPCFNGRVVSWLVSA [D49A] it was 0.018 ± 0.052; in that of GETKIIYHLDGQETPYLVKLPLPAERVTLADFKGVLQRPSYKFFFKSMSDDFGVVKEEISDDNAKLPCFNGRVVSWLVSA [D49S], 0.234 ± 0.048; in that of GETKIIYHLDGQETPYLVKLPLPAERVTLADFKGVLQRPSYKFFFKSMIDDFGVVKEEISDDNAKLPCFNGRVVSWLVSA [D49I], -0.231 ± 0.13.
With GETKIIYHLDGQETPYLVKLPLPAERVTLADFKGVLQRPSYKFFFKSMWDDFGVVKEEISDDNAKLPCFNGRVVSWLVSA [D49W], the abundance fitness is -0.461 ± 0.093.
In the case of GETKIIYHLDGQETPYLVKLPLPAERVTLADFKGVLQRPSYKFFFKSMNDDFGVVKEEISDDNAKLPCFNGRVVSWLVSA [D49N] it was 0.296 ± 0.089; in that of GETKIIYHLDGQETPYLVKLPLPAERVTLADFKGVLQRPSYKFFFKSMCDDFGVVKEEISDDNAKLPCFNGRVVSWLVSA [D49C], 0.013 ± 0.075; in that of GETKIIYHLDGQETPYLVKLPLPAERVTLADFKGVLQRPSYKFFFKSMQDDFGVVKEEISDDNAKLPCFNGRVVSWLVSA [D49Q], -0.053 ± 0.089.
On to GETKIIYHLDGQETPYLVKLPLPAERVTLADFKGVLQRPSYKFFFKSMFDDFGVVKEEISDDNAKLPCFNGRVVSWLVSA [D49F], for which the abundance fitness is -0.488 ± 0.17.
Consider GETKIIYHLDGQETPYLVKLPLPAERVTLADFKGVLQRPSYKFFFKSMGDDFGVVKEEISDDNAKLPCFNGRVVSWLVSA [D49G], for which the abundance fitness was -0.046 ± 0.049.
GETKIIYHLDGQETPYLVKLPLPAERVTLADFKGVLQRPSYKFFFKSMVDDFGVVKEEISDDNAKLPCFNGRVVSWLVSA [D49V]: the abundance fitness is -0.364 ± 0.069.
As for GETKIIYHLDGQETPYLVKLPLPAERVTLADFKGVLQRPSYKFFFKSMKDDFGVVKEEISDDNAKLPCFNGRVVSWLVSA [D49K], the abundance fitness was 0.203 ± 0.084.
Turning to GETKIIYHLDGQETPYLVKLPLPAERVTLADFKGVLQRPSYKFFFKSMMDDFGVVKEEISDDNAKLPCFNGRVVSWLVSA [D49M], the abundance fitness was -0.402 ± 0.14.
In the case of GETKIIYHLDGQETPYLVKLPLPAERVTLADFKGVLQRPSYKFFFKSMTDDFGVVKEEISDDNAKLPCFNGRVVSWLVSA [D49T], the abundance fitness was found to be 0.111 ± 0.069.
Consider GETKIIYHLDGQETPYLVKLPLPAERVTLADFKGVLQRPSYKFFFKSMEDDFGVVKEEISDDNAKLPCFNGRVVSWLVSA [D49E], for which the abundance fitness is -0.038 ± 0.07.
On to GETKIIYHLDGQETPYLVKLPLPAERVTLADFKGVLQRPSYKFFFKSMHDDFGVVKEEISDDNAKLPCFNGRVVSWLVSA [D49H], for which the abundance fitness was found to be 0.136 ± 0.08.
GETKIIYHLDGQETPYLVKLPLPAERVTLADFKGVLQRPSYKFFFKSMDDDGGVVKEEISDDNAKLPCFNGRVVSWLVSA [F52G]: the abundance fitness stood at 0.781 ± 0.057.
Regarding GETKIIYHLDGQETPYLVKLPLPAERVTLADFKGVLQRPSYKFFFKSMDDDAGVVKEEISDDNAKLPCFNGRVVSWLVSA [F52A], the abundance fitness was determined as 0.263 ± 0.056.
With GETKIIYHLDGQETPYLVKLPLPAERVTLADFKGVLQRPSYKFFFKSMDDDMGVVKEEISDDNAKLPCFNGRVVSWLVSA [F52M] the figure was 0.156 ± 0.056.
For the variant GETKIIYHLDGQETPYLVKLPLPAERVTLADFKGVLQRPSYKFFFKSMDDDSGVVKEEISDDNAKLPCFNGRVVSWLVSA [F52S], the abundance fitness amounted to 0.37 ± 0.045.
In the case of GETKIIYHLDGQETPYLVKLPLPAERVTLADFKGVLQRPSYKFFFKSMDDDQGVVKEEISDDNAKLPCFNGRVVSWLVSA [F52Q], the abundance fitness turned out to be 0.268 ± 0.057.
In the case of GETKIIYHLDGQETPYLVKLPLPAERVTLADFKGVLQRPSYKFFFKSMDDDCGVVKEEISDDNAKLPCFNGRVVSWLVSA [F52C] it was 0.351 ± 0.086; in that of GETKIIYHLDGQETPYLVKLPLPAERVTLADFKGVLQRPSYKFFFKSMDDDRGVVKEEISDDNAKLPCFNGRVVSWLVSA [F52R], 0.618 ± 0.048.
As to GETKIIYHLDGQETPYLVKLPLPAERVTLADFKGVLQRPSYKFFFKSMDDDHGVVKEEISDDNAKLPCFNGRVVSWLVSA [F52H], the abundance fitness was found to be 0.32 ± 0.065.
As to GETKIIYHLDGQETPYLVKLPLPAERVTLADFKGVLQRPSYKFFFKSMDDDKGVVKEEISDDNAKLPCFNGRVVSWLVSA [F52K], the abundance fitness is 0.604 ± 0.051.
As to GETKIIYHLDGQETPYLVKLPLPAERVTLADFKGVLQRPSYKFFFKSMDDDEGVVKEEISDDNAKLPCFNGRVVSWLVSA [F52E], the abundance fitness was found to be 0.335 ± 0.071.
As to GETKIIYHLDGQETPYLVKLPLPAERVTLADFKGVLQRPSYKFFFKSMDDDIGVVKEEISDDNAKLPCFNGRVVSWLVSA [F52I], the abundance fitness was 0.036 ± 0.077.
Consider GETKIIYHLDGQETPYLVKLPLPAERVTLADFKGVLQRPSYKFFFKSMDDDLGVVKEEISDDNAKLPCFNGRVVSWLVSA [F52L], for which the abundance fitness came out at 0.249 ± 0.042.
For GETKIIYHLDGQETPYLVKLPLPAERVTLADFKGVLQRPSYKFFFKSMDDQFGVVKEEISDDNAKLPCFNGRVVSWLVSA [D51Q], the abundance fitness turned out to be 0.158 ± 0.084.
